Results on two molecules are retold here after US20200223925A1 (Hoffmann-La Roche, published 2020).

One experiment addresses T1, human CD28 (human, UniProt P10747 19-220).
T1 construct: on primary human T cells in the functional assays; also called huCD28; CHO cells expressing human CD28
As to the kind of experiment: flow cytometry, CHO cells stably overexpressing human CD28, monovalent one-armed IgG from supernatant, PE anti-human IgG secondary, MFI. A general note: Flow cytometry measures light scatter and fluorescence of single cells or particles in a stream.

Experiment [1] has as its target T2, human Fibroblast Activation Protein (FAP) (human, UniProt Q12884 1-760).
T2 construct: on 3T3-huFAP or MV3 cells in the functional assays; also called huFAP; 3T3-huFAP cells (clone 19)
As to the kind of experiment: flow cytometry, 3T3-huFAP cells, PE anti-human IgG secondary, MFI.
Experimental: (§1) Binding was assessed by flow cytometry with a FACS Fortessa (BD, Software FACS Diva). Binding curves were obtained using GraphPadPrism6.

Experimental for human CD28: as §1

B1: CD28(SA)_variant_28 (antibody, human IgG1, kappa, L234A L235A)
heavy: not shown
light: not shown
chain: DKTHTCPPCPAPEAAGGPSVFLFPPKPKDTLMISRTPEVTCVVVDVSHEDPEVKFNWYVDGVEVHNAKTKPREEQYNSTYRVVSVLTVLHQDWLNGKEYKCKVSNKALGAPIEKTISKAKGQPREPQVCTLPPSRDELTKNQVSLSCAVKGFYPSDIAVEWESNGQPENNYKTTPPVLDSDGSFFLVSKLTVDKSRWQQGNVFSCSVMHEALHNRFTQKSLSLSP
notes: monovalent one-armed IgG-like construct; from supernatant; also called P1AE3084
Take B1: the binding result in the experiment with human CD28 is “binds”.

B2: Molecule E: FAP(4B9)-CD28(SA) 1+2 format (bispecific antibody, human IgG1, kappa, L234A L235A)
light: not shown
heavy 1: not shown
heavy 2: QVQLVQSGAEVKKPGASVKVSCKASGYTFTSYYIHWVRQAPGQGLEWIGCIYPGNVNTNYNEKFKDRATLTVDTSISTAYMELSRLRSDDTAVYFCTRSHYGLDWNFDVWGQGTTVTVSSASTKGPSVFPLAPSSKSTSGGTAALGCLVKDYFPEPVTVSWNSGALTSGVHTFPAVLQSSGLYSLSSVVTVPSSSLGTQTYICNVNHKPSNTKVDKKVEPKSCDKTHTCPPCPAPEAAGGPSVFLFPPKPKDTLMISRTPEVTCVVVDVSHEDPEVKFNWYVDGVEVHNAKTKPREEQYNSTYRVVSVLTVLHQDWLNGKEYKCKVSNKALGAPIEKTISKAKGQPREPQVCTLPPSRDELTKNQVSLSCAVKGFYPSDIAVEWESNGQPENNYKTTPPVLDSDGSFFLVSKLTVDKSRWQQGNVFSCSVMHEALHNHYTQKSLSLSPGGGGGSGGGGSGGGGSGGGGSEIVLTQSPGTLSLSPGERATLSCRASQSVTSSYLAWYQQKPGQAPRLLINVGSRRATGIPDRFSGSGSGTDFTLTISRLEPEDFAVYYCQQGIMLPPTFGQGTKVEIK
notes: bivalent anti-CD28(SA), monovalent anti-FAP (VH on knob chain, VL on hole chain), huIgG1 PG-LALA; also called P1AD9011; FAP-CD28(SA) 1+2
Take B2: in experiment [1], the binding result is listed as “binds”.
